# Experimental data published in publication PMC13544220, “Glycemic and bodyweight effects of GIPR coding variation reflect differences in surface expression and intrinsic functional impairment” (Science Advances, 2026).
# B1: L100F (protein, UniProt P48546 22-466, looked up, variant L100F)
# Gastric inhibitory …: RAETGSKGQTAGELYQRWERYRRECQETLAAAEPPSGLACNGSFDMYVCWDYAAPNATARASCPWYLPWHHHVAAGFVFRQCGSDGQWGLWRDHTQCENPEKNEAFLDQRLILERLQVMYTVGYSLSLATLLLALLILSLFRRLHCTRNYIHINLFTSFMLRAAAILSRDRLLPRPGPYLGDQALALWNQALAACRTAQIVTQYCVGANYTWLLVEGVYLHSLLVLVGGSEEGHFRYYLLLGWGAPALFVIPWVIVRYLYENTQCWERNEVKAIWWIIRTPILMTILINFLIFIRILGILLSKLRTRQMRCRDYRLRLARSTLTLVPLLGVHEVVFAPVTEEQARGALRFAKLGFEIFLSSFQGFLVSVLYCFINKEVQSEIRRGWHHCRLRRSLGEEQRQLPERAFRALPSGSGPGEVPTSRGLSSGTLPGPGNEASRELESYC
# Assays:
# Type in all cases: cell-based, human
# [1] = system: wild-type and variant SNAP-GIPR; experiment: Constitutive and agonist-mediated internalization, reversible SNAP-tag labelling, AD293 cells; design: key to Internalisation, Vehicle / Internalisation, +GIP / Internalisation, GIP-only: % internalization: residual fluorescence after Mesna vs pre-Mesna; Surface expression: unit not given here; settings: Mean
# Summary of the method: (§1)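 Surface SNAP-GIPR signal removable by Mesna was tracked by imaging before and 10 min after treatment in pH 8.6 TNE buffer. Internalization is the Mesna-resistant share of specific fluorescence.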
# [2] = system: wild-type and variant SNAP-GIPR; experiment: Constitutive and agonist-mediated internalization, reversible SNAP-tag labelling, INS-1 cells; design: key to Internalisation, GIP-only / Internalisation, Vehicle / Internalisation, +GIP: % internalization: residual fluorescence after Mesna vs pre-Mesna; settings: Mean
# Summary of the method: as §1
# [3] = system: wild-type and variant SNAP-GIPR; experiment: Single-concentration GIP cAMP response by HTRF in AD293 cells; settings: Fig S3F, HTRF, mean;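 note: ratio to experiment-wide average response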
# Procedure: (§2) All variants were tested in parallel on each occasion to control for transfection efficiency differences between experiments.
# [4] = system: wild-type and variant SNAP-GIPR; experiment: cADDis cAMP imaging in AD293 cells, ensemble, expression-matched and per decile; settings: Fig S3F, cADDis, mean;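 note: Ensemble cells as % of IBMX/FSK response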
# Summary of the method: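 Variants and wild type ran in parallel in transfected AD293 cells carrying cADDis. Single-cell sensor intensity, with nonresponders to IBMX/FSK removed, was paired with SNAP-Surface 647 labeling to allow expression-matched analysis.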
# [5] = system: wild-type and variant SNAP-GIPR; experiment: Surface SNAP-GIPR expression (SNAP-tag labelling) in INS-1 cells; settings: Fig 4G; Mean
# Summary of the method: (§3)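 Surface GIPR is quantified from wide-field images after labelling intact transfected cells with a membrane-impermeant SNAP probe at 500 nM for 10 min at room temperature. Specific signal, corrected for nontransfected cells, is normalized to the experiment-wide average or to wild-type.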
# [6] = system: wild-type and variant SNAP-GIPR; experiment: Surface SNAP-GIPR expression (SNAP-tag labelling) in AD293 cells; settings: for AD293 Surface: Fig S3E, mean; for Surface SNAP-GIPR expression: sheet Fig 1C;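 for all read-outs here: scaled to the experimental average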
# Summary of the method: as §3
# [7] = system: wild-type and variant SNAP-GIPR; experiment: Single-concentration GIP cAMP response by HTRF in INS-1 cells; settings: Fig S3E, mean
# Procedure: as §2
molecule,measurement,setting,value
B1,+GIP internalisation (100 nM),"[1]; Fig 4E, GIP 100 nM",0.8469
same,GIP-specific internalisation (100 nM),"[1]; Fig 4E, GIP 100 nM",0.2452
same,Constitutive internalisation (100 nM),[1]; Fig 4E,0.6017
same,Surface expression,[1]; Fig 4E,1.442
same,"Internalisation, +GIP","[1]; Fig S4C, AD293",58.6424
same,"Internalisation, GIP-only","[1]; Fig S4C, AD293",16.9646
same,"Internalisation, Vehicle","[1]; Fig S4C, AD293",41.6779
same,+GIP internalisation (100 nM),"[2]; Fig 4G, GIP 100 nM",0.7901
same,GIP-specific internalisation (100 nM),"[2]; Fig 4G, GIP 100 nM",0.1883
same,Constitutive internalisation (100 nM),[2]; Fig 4G,0.6018
same,"Internalisation, +GIP","[2]; Fig S4C, INS-1",47.6567
same,"Internalisation, GIP-only","[2]; Fig S4C, INS-1",11.2267
same,"Internalisation, Vehicle","[2]; Fig S4C, INS-1",36.43
same,AD293 100 pM HTRF,"[3]; AD293, 100 pM",1.607
same,AD293 100 nM HTRF,"[3]; AD293, 100 nM",1.598
same,AD293 100 pM cADDis,"[4]; AD293, 100 pM",37.4091
same,AD293 100 nM cADDis,"[4]; AD293, 100 nM",36.85
same,Surface expression,[5],1.643
same,AD293 Surface,"[6]; column repeated, paired with cAMP 100 nM",1.501
same,AD293 Surface,[6]; paired with cAMP 100 pM,1.501
same,Surface SNAP-GIPR expression,[6]; replicate 1,1.524
same,Surface SNAP-GIPR expression,[6]; replicate 2,1.675
same,Surface SNAP-GIPR expression,[6]; replicate 3,1.679
same,Surface SNAP-GIPR expression,[6]; replicate 4,1.13
same,Surface SNAP-GIPR expression,[6]; replicate 5,1.597
same,Surface SNAP-GIPR expression,[6]; replicate 6,1.532
same,Surface SNAP-GIPR expression,[6]; replicate 7,1.271
same,Surface SNAP-GIPR expression,[6]; replicate 8,1.313
same,Surface SNAP-GIPR expression,[6]; replicate 9,1.282
same,Surface SNAP-GIPR expression,[6]; replicate 10,1.519
same,Surface SNAP-GIPR expression,[6]; replicate 11,1.303
same,Surface SNAP-GIPR expression,[6]; replicate 12,1.295
same,Surface SNAP-GIPR expression,[6]; replicate 13,1.669
same,Surface SNAP-GIPR expression,[6]; replicate 14,1.299
same,Surface SNAP-GIPR expression,[6]; replicate 15,1.522
same,Surface SNAP-GIPR expression,[6]; replicate 16,1.442
same,Surface SNAP-GIPR expression,[6]; replicate 17,1.643
same,Surface SNAP-GIPR expression,[6]; replicate 18,1.736
same,Surface SNAP-GIPR expression,[6]; replicate 19,1.668
same,Surface SNAP-GIPR expression,[6]; replicate 20,1.712
same,Surface SNAP-GIPR expression,[6]; replicate 21,1.622
same,Surface SNAP-GIPR expression,[6]; replicate 22,1.675
same,Surface SNAP-GIPR expression,[6]; replicate 23,1.531
same,Surface SNAP-GIPR expression,[6]; replicate 24,1.559
same,Surface SNAP-GIPR expression,[6]; replicate 25,1.328
same,Surface SNAP-GIPR expression,[6]; replicate 26,1.878
same,Surface SNAP-GIPR expression,[6]; replicate 27,1.259
same,Surface SNAP-GIPR expression,[6]; replicate 28,1.697
same,Surface SNAP-GIPR expression,[6]; replicate 29,1.401
same,Surface SNAP-GIPR expression,[6]; replicate 30,1.456
same,Surface SNAP-GIPR expression,[6]; replicate 31,1.661
same,Surface SNAP-GIPR expression,[6]; replicate 32,1.58
same,Surface SNAP-GIPR expression,[6]; replicate 33,1.459
same,Surface SNAP-GIPR expression,[6]; replicate 34,1.249
same,Surface SNAP-GIPR expression,[6]; replicate 35,1.682
same,Surface SNAP-GIPR expression,[6]; replicate 36,1.611
same,Surface SNAP-GIPR expression,[6]; replicate 37,1.381
same,Surface SNAP-GIPR expression,[6]; replicate 38,1.301
same,Surface SNAP-GIPR expression,[6]; replicate 39,1.418
same,Surface SNAP-GIPR expression,[6]; replicate 40,1.406
same,Surface SNAP-GIPR expression,[6]; replicate 41,1.553
same,INS-1 cAMP (100 nM),[7],1.416
